Source: WO2018183494A1 (dated 2018)

Target: T1, CD19 (UniProt P15391 20-556, limits assumed)
T1 sequence (looked up): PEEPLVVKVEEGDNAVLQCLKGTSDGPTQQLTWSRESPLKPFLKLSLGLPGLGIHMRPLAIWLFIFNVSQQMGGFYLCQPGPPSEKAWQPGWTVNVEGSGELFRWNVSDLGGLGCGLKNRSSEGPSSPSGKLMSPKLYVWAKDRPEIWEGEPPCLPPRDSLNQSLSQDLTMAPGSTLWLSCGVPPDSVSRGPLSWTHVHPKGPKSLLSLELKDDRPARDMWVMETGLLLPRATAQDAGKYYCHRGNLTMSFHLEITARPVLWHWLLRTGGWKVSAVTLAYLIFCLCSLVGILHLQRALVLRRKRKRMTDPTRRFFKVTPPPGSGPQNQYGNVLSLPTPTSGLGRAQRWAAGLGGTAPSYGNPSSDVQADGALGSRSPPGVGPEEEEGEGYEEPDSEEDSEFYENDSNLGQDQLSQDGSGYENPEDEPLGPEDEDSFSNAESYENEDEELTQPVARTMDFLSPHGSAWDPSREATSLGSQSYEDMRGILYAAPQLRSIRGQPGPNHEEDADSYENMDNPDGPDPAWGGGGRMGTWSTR
Experiment: cell-based or functional assay

B1: huB4-DGN462 (antibody, V domains shown)
VH: QVQLVQPGAEVVKPGASVKLSCKTSGYTFTSNWMHWVKQAPGQGLEWIGEIDPSDSYTNYNQNFQGKAKLTVDKSTSTAYMEVSSLRSDDTAVYYCARGSNPYYYAMDYWGQGTSVTVSS
VL: EIVLTQSPAIMSASPGERVTMTCSASSGVNYMHWYQQKPGTSPRRWIYDTSKLASGVPARFSGSGSGTDYSLTISSMEPEDAATYYCHQRGSYTFGGGTKLEIKR
B1 was tested, and the “median IC50 of cytotoxic activity (MTT assay, 72 h) in B cell lymphoma cell lines” value was 100 pM and the “median IC50 of cytotoxic activity (MTT assay, 72 h) in eight T cell-derived lymphomas with lower CD19 expression” value was 1.75 nM.
